Measured values taken from US20130209454A1.
Substitutions are numbered along the chain they refer to. Numbers in names are those of the source.

What was measured:
Assay in all cases: cell-based or functional assay
[1] = target: HIV-1 strain Du422.1 envelope (gp120) (HIV-1)
[2] = target: HIV-1 strain C2101.c01 envelope (gp120) (HIV-1)
[3] = target: HIV-1 Env of strain 3016.v5.c45 (HIV-1)
[4] = target: HIV-1 strain CNE58 envelope (gp120) (HIV-1)
[5] = target: HIV-1 Env of strain 6545.v4.cl (HIV-1)
[6] = target: HIV-1 Env of strain P0402_c2_11 (HIV-1)
[7] = target: HIV-1 strain Q769.d22 envelope (gp120) (HIV-1)
[8] = target: HIV-1 strain 3103.v3.c10 envelope (gp120) (HIV-1)
[9] = target: HIV-1 Env of strain CAP45.2.00.G3 (HIV-1)
[10] = target: HIV-1 Env of strain ZM135M.PL10a (HIV-1)
[11] = target: HIV-1 Env of strain Du422.1 (HIV-1)
[12] = target: HIV-1 strain Q23.17 envelope (gp120) (HIV-1)
[13] = target: HIV-1 strain Ce0682_E4 envelope (gp120) (HIV-1)
[14] = target: HIV-1 strain Q259.d2.17 envelope (gp120) (HIV-1)
[15] = target: HIV-1 Env of strain 703357.C02 (HIV-1)
[16] = target: HIV-1 Env of strain SC422661.8 (HIV-1)
[17] = target: HIV-1 strain CNE30 envelope (gp120) (HIV-1)
[18] = target: HIV-1 strain T257-31 envelope (gp120) (HIV-1)
[19] = target: HIV-1 Env of strain CNE20 (HIV-1)
[20] = target: HIV-1 strain 3415.v1.c1 envelope (gp120) (HIV-1)
[21] = target: HIV-1 Env of strain THRO4156.18 (HIV-1)
[22] = target: HIV-1 strain TRJO4551.58 envelope (gp120) (HIV-1)
[23] = target: HIV-1 Env of strain 3301.v1.c24 (HIV-1)
[24] = target: HIV-1 Env of strain C2101.c01 (HIV-1)
[25] = target: HIV-1 strain P0402_c2_11 envelope (gp120) (HIV-1)
[26] = target: HIV-1 Env of strain 1054_07_TC4_1499 (HIV-1)
[27] = target: HIV-1 Env of strain 6540.v4.cl (HIV-1)
[28] = target: HIV-1 strain C3347.c11 envelope (gp120) (HIV-1)
[29] = target: HIV-1 strain 3301.v1.c24 envelope (gp120) (HIV-1)
[30] = target: HIV-1 strain Du156.12 envelope (gp120) (HIV-1)
[31] = target: HIV-1 strain Ce2060_G9 envelope (gp120) (HIV-1)
[32] = target: HIV-1 strain CNE21 envelope (gp120) (HIV-1)
[33] = target: HIV-1 Env of strain 231966.c02 (HIV-1)
[34] = target: HIV-1 Env of strain Ce703010054_2A2 (HIV-1)
[35] = target: HIV-1 Env of strain 231965.c01 (HIV-1)
[36] = target: HIV-1 strain 1054_07_TC4_1499 envelope (gp120) (HIV-1)
[37] = target: HIV-1 strain ZM109F.PB4 envelope (gp120) (HIV-1)
[38] = target: HIV-1 Env of strain 89-F1_2_25 (HIV-1)
[39] = target: HIV-1 Env of strain 0330.v4.c3 (HIV-1)
[40] = target: HIV-1 Env of strain Ce2060_G9 (HIV-1)
[41] = target: HIV-1 Env of strain CNE53 (HIV-1)
[42] = target: HIV-1 strain ZM197M.PB7 envelope (gp120) (HIV-1)
[43] = target: HIV-1 Env of strain Du156.12 (HIV-1)
[44] = target: HIV-1 Env of strain AC10.0.29 (HIV-1)
[45] = target: HIV-1 strain WITO4160.33 envelope (gp120) (HIV-1)
[46] = target: HIV-1 Env of strain CNE30 (HIV-1)
[47] = target: HIV-1 strain 3817.v2.c59 envelope (gp120) (HIV-1)
[48] = target: HIV-1 strain ZM214M.PL15 envelope (gp120) (HIV-1)
[49] = target: HIV-1 strain Ce1176_A3 envelope (gp120) (HIV-1)
[50] = target: HIV-1 Env of strain CAP210.2.00.E8 (HIV-1)

B1: NIH45-46^G54Y IgG (antibody, name in Kabat numbering, V domains shown)
VH: QVRLSQSGGQMKKPGESMRLSCRASGYEFLNCPINWIRLAPGRRPEWMGWLKPRYGAVNYARKFQGRVTMTRDVYSDTAFLELRSLTSDDTAVYFCTRGKYCTARDYYNWDFEHWGRGAPVTVSS
VL: EIVLTQSPATLSLSPGETAIISCRTSQSGSLAWYQQRPGQAPRLVIYSGSTRAAGIPDRFSGSRWGADYNLSISNLESGDFGVYYCQQYEFFGQGTKVQVDI
neutralization IC80 [1]: > 50 µg/mL | neutralization IC80 [2]: 0.27 µg/mL | neutralization IC50 [3]: 17.9 µg/mL | neutralization IC80 [4]: 0.11 µg/mL | neutralization IC50 [5]: > 50 µg/mL | neutralization IC50 [6]: 0.012 µg/mL | neutralization IC80 [7]: 0.024 µg/mL | neutralization IC80 [8]: 0.81 µg/mL | neutralization IC50 [9]: > 50 µg/mL | neutralization IC50 [10]: 0.09 µg/mL | neutralization IC50 [11]: > 50 µg/mL | neutralization IC80 [12]: 0.06 µg/mL | neutralization IC80 [13]: 0.065 µg/mL | neutralization IC80 [14]: 0.034 µg/mL | neutralization IC50 [15]: 5.6 µg/mL | neutralization IC50 [16]: 0.04 µg/mL | neutralization IC80 [17]: 0.263 µg/mL | neutralization IC80 [18]: 0.67 µg/mL | neutralization IC50 [19]: 0.33 µg/mL | neutralization IC80 [20]: 0.037 µg/mL | neutralization IC50 [21]: 0.66 µg/mL | neutralization IC80 [22]: 0.07 µg/mL | neutralization IC50 [23]: 0.003 µg/mL | neutralization IC50 [24]: 0.09 µg/mL | neutralization IC80 [25]: 0.049 µg/mL | neutralization IC50 [26]: 0.064 µg/mL | neutralization IC50 [27]: > 50 µg/mL | neutralization IC80 [28]: 0.052 µg/mL | neutralization IC80 [29]: 0.014 µg/mL | neutralization IC80 [30]: 0.026 µg/mL | neutralization IC80 [31]: 0.068 µg/mL | neutralization IC80 [32]: 0.29 µg/mL | neutralization IC50 [33]: 0.06 µg/mL | neutralization IC50 [34]: 0.022 µg/mL | neutralization IC50 [35]: 0.025 µg/mL | neutralization IC80 [36]: 0.236 µg/mL | neutralization IC80 [37]: 0.168 µg/mL | neutralization IC50 [38]: > 50 µg/mL | neutralization IC50 [39]: 0.03 µg/mL | neutralization IC50 [40]: 0.021 µg/mL | neutralization IC50 [41]: 0.006 µg/mL | neutralization IC80 [42]: 0.21 µg/mL | neutralization IC50 [43]: 0.007 µg/mL | neutralization IC50 [44]: 0.19 µg/mL | neutralization IC80 [45]: 0.09 µg/mL | neutralization IC50 [46]: 0.099 µg/mL | neutralization IC80 [47]: > 50 µg/mL | neutralization IC80 [48]: 0.23 µg/mL | neutralization IC80 [49]: 0.58 µg/mL

B2: NIH45-46^G54F IgG (antibody, name in Kabat numbering, V domains shown)
VH: B1 VH with Y55F
VL: B1 VL
neutralization IC80 [1]: > 50 µg/mL | neutralization IC80 [2]: 0.42 µg/mL | neutralization IC50 [3]: 5.82 µg/mL | neutralization IC80 [4]: 0.11 µg/mL | neutralization IC50 [5]: > 50 µg/mL | neutralization IC50 [6]: 0.008 µg/mL | neutralization IC80 [7]: 0.023 µg/mL | neutralization IC80 [8]: 1.28 µg/mL | neutralization IC50 [10]: 0.13 µg/mL | neutralization IC50 [11]: > 50 µg/mL | neutralization IC80 [12]: 0.07 µg/mL | neutralization IC80 [13]: 0.056 µg/mL | neutralization IC80 [14]: 0.036 µg/mL | neutralization IC50 [15]: 7.91 µg/mL | neutralization IC50 [16]: 0.04 µg/mL | neutralization IC80 [17]: 0.348 µg/mL | neutralization IC80 [18]: 0.51 µg/mL | neutralization IC50 [19]: 0.53 µg/mL | neutralization IC80 [20]: 0.029 µg/mL | neutralization IC50 [21]: 0.89 µg/mL | neutralization IC80 [22]: 0.08 µg/mL | neutralization IC50 [23]: 0.001 µg/mL | neutralization IC50 [24]: 0.11 µg/mL | neutralization IC80 [25]: 0.047 µg/mL | neutralization IC50 [26]: 0.076 µg/mL | neutralization IC50 [27]: > 50 µg/mL | neutralization IC80 [28]: 0.059 µg/mL | neutralization IC80 [29]: 0.011 µg/mL | neutralization IC80 [30]: 0.019 µg/mL | neutralization IC80 [31]: 0.085 µg/mL | neutralization IC80 [32]: 0.66 µg/mL | neutralization IC50 [33]: 0.06 µg/mL | neutralization IC50 [34]: 0.02 µg/mL | neutralization IC50 [35]: 0.022 µg/mL | neutralization IC80 [36]: 0.283 µg/mL | neutralization IC80 [37]: 0.17 µg/mL | neutralization IC50 [38]: > 50 µg/mL | neutralization IC50 [39]: 0.04 µg/mL | neutralization IC50 [40]: 0.022 µg/mL | neutralization IC50 [41]: 0.005 µg/mL | neutralization IC80 [42]: 0.23 µg/mL | neutralization IC50 [43]: < 0.001 µg/mL | neutralization IC50 [44]: 0.24 µg/mL | neutralization IC80 [45]: 0.14 µg/mL | neutralization IC50 [46]: 0.1 µg/mL | neutralization IC80 [47]: > 50 µg/mL | neutralization IC80 [48]: 0.3 µg/mL | neutralization IC80 [49]: 0.83 µg/mL

B3: NIH45-46^G54W (antibody, V domains shown)
VH: B1 VH with Y55W
VL: B1 VL
IC50, pseudovirus neutralization [3]: 1.47 µg/mL | IC50, pseudovirus neutralization [6]: 0.003 µg/mL | IC50, pseudovirus neutralization [9]: 32.2 µg/mL | IC50, pseudovirus neutralization [10]: 0.04 µg/mL | IC50, pseudovirus neutralization [11]: > 50 µg/mL | IC50, pseudovirus neutralization [16]: 0.02 µg/mL | IC50, pseudovirus neutralization [19]: 0.04 µg/mL | IC50, pseudovirus neutralization [21]: 0.54 µg/mL | IC50, pseudovirus neutralization [23]: 0.001 µg/mL | IC50, pseudovirus neutralization [24]: 0.04 µg/mL | IC50, pseudovirus neutralization [26]: 0.04 µg/mL | IC50, pseudovirus neutralization [33]: 0.02 µg/mL | IC50, pseudovirus neutralization [34]: 0.027 µg/mL | IC50, pseudovirus neutralization [35]: 0.001 µg/mL | IC50, pseudovirus neutralization [38]: > 50 µg/mL | IC50, pseudovirus neutralization [40]: 0.005 µg/mL | IC50, pseudovirus neutralization [41]: 0.001 µg/mL | IC50, pseudovirus neutralization [43]: 0.001 µg/mL | IC50, pseudovirus neutralization [44]: 0.13 µg/mL | IC50, pseudovirus neutralization [46]: 0.052 µg/mL | IC50, pseudovirus neutralization [50]: > 50 µg/mL

B4: NIH45-46^G54W(HC), S28Y(LC) (antibody, V domains shown)
VH: B1 VH with Y55W
VL: B1 VL with S28Y
IC50, pseudovirus neutralization [3]: 0.006 µg/mL | IC50, pseudovirus neutralization [6]: 0.01 µg/mL | IC50, pseudovirus neutralization [9]: 0.02 µg/mL | IC50, pseudovirus neutralization [10]: 0.049 µg/mL | IC50, pseudovirus neutralization [11]: 8.47 µg/mL | IC50, pseudovirus neutralization [16]: 0.024 µg/mL | IC50, pseudovirus neutralization [19]: 0.001 µg/mL | IC50, pseudovirus neutralization [21]: 0.685 µg/mL | IC50, pseudovirus neutralization [23]: 0.001 µg/mL | IC50, pseudovirus neutralization [24]: 0.044 µg/mL | IC50, pseudovirus neutralization [26]: 0.104 µg/mL | IC50, pseudovirus neutralization [33]: 0.012 µg/mL | IC50, pseudovirus neutralization [34]: 0.016 µg/mL | IC50, pseudovirus neutralization [35]: 0.001 µg/mL | IC50, pseudovirus neutralization [38]: > 50 µg/mL | IC50, pseudovirus neutralization [40]: 0.014 µg/mL | IC50, pseudovirus neutralization [41]: 0.006 µg/mL | IC50, pseudovirus neutralization [43]: 0.003 µg/mL | IC50, pseudovirus neutralization [44]: 0.118 µg/mL | IC50, pseudovirus neutralization [46]: 0.082 µg/mL | IC50, pseudovirus neutralization [50]: 1.95 µg/mL
